From the domain aggregation screens of Martell et al. (2025)

test: soluble fraction after stress (log2 fold change); higher = more stays soluble; pooled small domains, quantitative proteomics; settings: stress: pH 4
Procedure, shortened: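 How much of each domain stays soluble after acid stress, expressed as a fold change, is used to gauge aggregation propensity. Pooled custom libraries of small domains underwent pH 4 stress before high-throughput quantitative proteomics. A higher log2 value means more of the domain stayed soluble.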

| Sequence | soluble fraction (log2) |
| --- | --- |
| HMANILKHKNKDGVITSYTIRVYHGYDEAGKRLRPYTMNYKPAPNMTARQIEKELNRQAVQFEEQIKNGYA | -0.182 |
| HMANKLTSTNLAKQHKMGLSEMYAELMNSGYLIEKDGKYELTPLGISIGGESKPNRYKKGEFYFLWPSDIS | 0.22 |
| HMANLLNLREIPVANIRPELTMFLIPGENITQAFQTIRDQVVFTNKRLIVANVQGLTGKKVSYTSYPY | -0.251 |
| HMANPFQELTERELDVLRQVAAGKNNREIAEALFIGEKTVKTHISNILSKLHLADRTQAAVYAWQQGMM | -1.14 |
| HMANTVVMPNLLGKTMTEAKIELKELGIDITLKGSESSSKYSAGQIMEQNIAEGTKVEVGSSVEVTIAGS | 0.334 |
| HMAPAPDEAFAEFVRSSAPSLTRTAWLLTGDRGHAQDLVQNAYAKTLQAWGRLDAEGALAYTRRAVIT | -0.0327 |
| HMAPDGIEDKEGWLKVLPMITNLSIQMQNLQARGMDYEHIRNLLHETLLRYDDRIDSNLFIPNV | -0.198 |
| HMAPDNDELEKAKKIVNAFIEAKAKGLGVVSLGTKMIDAPVVKRAQKIIDQTIVMGKLSLNWQDEFFN | -0.32 |
| HMAPEVTVHDGSIVVRGHVGGVTVYDESGRQIASVQSRGAVAIPVPAGHTYLYIVKPEGKPAIKVRAAH | -0.0212 |
| HMAPKSALKIIEQISNNPRATMTDLANLTGYSRRWVAQTIKRLQEENIIKRIGSDKSGYWEIIG | 0.417 |
| HMAPLATLEADGNGAVKLPNLAGHAIREVAAALGGANLALIPIGSGTSWKQNPAPGTILHKGDTVTVYF | -0.353 |
| HMAPLEPLTDRETEMLVRLANGASNKVMARESFVSENTIKFHLKNIYAKLGVTSRLQAIAAARNQGLI | -0.0342 |
| HMAPLRTQYVNVNYANAAEIKTLISGADKEVGSLLSERGSVVVDKRTNTLIIQDTQARLNDIGDLIEQLD | -0.52 |
| HMAPMYGEFENVRLTDAQLDKLNARFPPEQVQREIEALSGYMRSKGKRYADHYATLLNWLRRDFPP | -0.112 |
| HMAPNVEENSKLIGEIGMTLTPLRPSGIATINNRRVDVVSNGDFIDQDERVMVKRVQGARVVVIPV | 0.1 |
| HMAPPDFTTFMRNYQDMVYSTAVRLIGNETQAEDIAQEVFIKAHAHFENLRTSPSAGGWLKTVATNLSIN | -0.949 |
| HMAPQAETLLRQVMALPSKDRAVLYLHYYEGFSTREVGDMLHISQSAVTTRLLRARKKLKEIL | -0.754 |
| HMAPRLTERERQVLQLIAEGLTSMQIGDRLHIAASTVDVHRRNLMRKLDLHNVADLTRYAITQGISP | 0.00348 |
| HMAPRQDIAYYTVKPGDTVLAIAEKFGLQPETLMWSNSIIEQNPDRLSIGDELRILPVDGVLHVVK | -0.666 |
| HMAPRSSAVYFYLSQVALKKNQPRKAEAMARRGLTVSQDANRRRALWQLILRSGQAQNNTRVIREAQQAL | -0.0754 |
| HMAPSLSEYAYEEIKHAIERGVYPPGAKLITQEIADRLGISRTPVVAAVNRLTAEGYADAVPQHGIFVK | 0.0288 |
| HMAPVLTRREHEVLHLLTDGLDNRTIARNLFISEATVKFHLHNIMGKFGVHRRAALVSTALRG | -0.182 |
| HMAPVTPEERAQAMEEYKAMVTIEGYTPPKNIIEQNYKRGLWSETMLNMAVTKGAITEAEKLEIMN | 0.0947 |
| HMAQIVNLPRKNVNGASYYYYEVQPKETIYSISRKLGVSGAEIQRHNPSVADGLKIGQVLYFPAEG | -0.0603 |
| HMAQLPADMSKVKSADISEAQLQEFIQKATSSGYNMNQIEMEFAKRGMSENEVSLLRPRLRRLMAS | 0.212 |
| HMAQLSDDEQAIIDTITRRGDATMSELIASVNVSTPRLMSMLIDMEFRSLITALPGGRYQIRLIN | -0.464 |

| Sequence | soluble fraction (log2) |
| --- | --- |
| HMAQLTPREREVLVLIAEGKSNKEIADQLNIGVRTIETHRERIMRRLNIHSVAGLTKYAIANGLVTL | 0.0239 |
| HMAQPIPSGADIRAAREAAGMTLRRFAEYIAGPDFSTWSRYETGKPIRVKNISPEVWQRVRKFIAQNKG | 0.129 |
| HMAQQEMEIIPLRHRQVEQVMPTLRPLLEPGAALSGMNNQLILRASRKNREEIKQALAVIDT | 0.121 |
| HMAQSEDLMVMAQRILGGPEAQSFFQAEATRQGLAGFLPEPIPDFLQRLERKLSGSVGSATAHAMVAQTMG | -0.279 |
| HMAQSLAQKINNYILTNRSSIANVAKSIGYSRTTVSRYLAGKYDSDPTDLENKLAEFLAHETGE | 0.017 |
| HMAQTEIIRVTKDIKKGDAITADKFEKVKVGAYNLPGNVVKNADELKGKFAAADLVRGDYILTSKLTDNP | 0.0605 |
| HMAQVRSTVERRENGTYTVELNLNDDVDNVMRLQLMVATKEMAEDLAQRFQKNPEQVYSQLVTALYG | -0.719 |
| HMAQVSDDAELEKWADTAIDEHPKPVEEYRAGNAASINFLMGQVMKMSRGKANPGAVMQILKQKLD | 0.22 |
| HMAQVSDTGAIAKIVADAIAANPKQVQQYLDGNEKVLMYLVGQVMKLSKGKANPPMVIQLLKEQLG | -0.0882 |
| HMAQVSDTGELEGVVDGVLAANAKSVADFQAGKENAFQYLIGQVMKETKGKANPEVVATLLRTKLS | 0.121 |
| HMARAGKLAQDMAVWTKETMLNTERNFISLRHFKRELLRRTLAPGESEQTVRAMEEAGYIQVKDGLVFPIK | -0.511 |
| HMAREQISVSQMVRDVRDGQVKNIEVLGQELRLSYADGSQKVTRKEEGQQALEILFASDIDLAALDLEVQ | -1.16 |
| HMARIDYHAMDSDDLSFSEGELLEIYDKPGSFWWKGRSLVSGDEGDIPS | -1.15 |
| HMARKFQKDTGYLNKKERTWLLDFFPSLKKYLYTGAYIRSIIVVESNVTYTDKELPSNYTFTYKFA | 0.176 |
| HMARKISVEALGKYFPNSPMLAAAVAVTGVMKKDEFIHEMRASYKHKFAKKPEVIDGNMKALTMTFEA | -0.122 |
| HMARNHYETLGVGRTATGDEIRKAYRSEAQKHHPDRGGDAERMQSLNEARDTLLDDQARAAYDQELDL | -0.0435 |
| HMARPLLSPREQDVLALIARGFSYSEVARLQAVTVHTIRTHIRNLYAKLSVHSKTEAVFEATRMGLLP | -0.569 |
| HMARRKRDIDSDINVKVFEHWLDNLDSASRESFSAFAEETFSPIQVYLYAKFLGYESSIIAVDHWVAVAYP | -0.574 |
| HMARSVAEFVERGRSGGSLERPKLQRMLEYIQDRPVDFVIVHKIDRLARNRADDAAITKTIRGAGAYLVST | -0.103 |
| HMARTGSEELVGALATVREPLAPWGQVFVQGALWRARSADGGPVDAGQQVVVRAVEGLTLVVEPRD | -0.166 |
| HMARYSMLEEQLLQLINKHGTMSTPKLVEATGAPRSTVTYQLRKLLESGTIERTQPARSPKQSYRIKS | 0.0957 |
| HMASATGVVTAASLNVRSGAGTNYSVVNTLAKGTKVTVLNTADGWYEIEATVNNEKITGYVSATYIAMD | -0.0486 |
| HMASLSRRELEVLELLALRLTVKEVAERLVISELTAKRHTSNIYQKLGVNRRRDALAAAQARGLLGAR | -1.09 |
| HMASRSQTEIMHLLSSGLPKHELVTALQSLLGISKPTAYKYLSQDVSIAYDHMVKILEYPPFQRVLYQ | -0.799 |
| HMASSVKAPLPGVILDIKVKVGDTIKNGDTVVILEAMKMENNIHSDKDGVVKSIEVNKGDSVLEGATLLTI | -0.822 |
| HMASVDDILDRFKQAAKVTTDADLAKVLGLSRQSIAAARLRAKIPASWFPKMSSLFNISTEWLYRG | 0.011 |

| Sequence | soluble fraction (log2) |
| --- | --- |
| HMASVRPVAPPDPKTHTRLTYRIRRGDTLERIGRRYRVSIAEIQAWNTLRDPGDILAGQRLVIWIPTS | 0.117 |
| HMATAPQIRAIYALGSKLGINQNSREDNLHQLVYSITGKESIKGLTNYEAARVQSELANMERK | 0.396 |
| HMATEPLQPRVEVLGSTLATTNGARIVGVYDMSGREVSATQLSKGVYIVKVTNGSVTATQKVFI | 0.254 |
| HMATETMGMIIRRLRREHGLTQEELAASIGVTAQAVSKWEKDLGMPDISQIVPLAGAFNVRTDVLFGLE | -0.672 |
| HMATEWLSSKEAAQRLGVSAATLYAYVSRGLLRSEGSSGQRERRYRADDVAQLRRRREVGRKAESIAASTL | 0.142 |
| HMATHWHITPNPNNGKFLISGLMQDDSFHLMDASGQWLRQLRTVNQELDLDLQPGVYFLKDNSGSVMKFVV | -1.15 |
| HMATIADILAEHKDKEGPLLPVLHDVQKMFGHVSEEAMREIAQALNLTRAEVYGVVSFYHDFRKEVE | -1.19 |
| HMATIIGSIGIVTQKVGLTGVPGRVYVNNESWAAISANGKEIENDTQVIVVKIDGATLIIEKKG | -0.262 |
| HMATKEQIKRIYGLGAGLGIVGKDKDDMLHELIFSITGKDSVKQLDDSEFKAVQAELINRMKLA | -0.111 |
| HMATLAVPNLMRLSQGEAMALIRLSGLSIGNVSIDSSMGSPRVIRQEPQASGGMLVLTQGDQVHLWLEGP | -2.08 |
| HMATLQLPVPKITLYPGELIRSDHLTDQRFNARALYHSAVYKSREDIVGKVARRTLLPGQPIPVNALR | 0.194 |
| HMATPKRGFRKQLAPLVQSGTITREEAGELSRSSGDATALRTKIGELMKAGKLTRKEAGELYSDAFPENA | 0.0387 |
| HMATPYISMAGIGKSFGPVHALKSVNLTVYPGEIHALLGENGAGKSTLMKVLSGIHEPTKGTITINNIN | ≥ 0.43 |
| HMATRAEQMAKTHQAILDTARELFLRNGYDATSTRDIANAIGITQPALYHHFKDKEVIFLAVI | 0.101 |
| HMATSLTEQEKLIFGLLKKQSPIELSSLKEQAGLSNKKWDKAIKGLSTQQLAKVTKTENGLFVHLLQ | 0.12 |
| HMATTAGIEKYLGSGLIKGIGPIYAKKIVRKFKEDTIRIIDEEPDRLLEVEGIGQKRLEIIKQAWQQQKE | -0.826 |
| HMATVHVDGIQYDFSSPEQAKEFAYKWAKKHNLTWEVHGETIHIK | -0.0405 |
| HMATYNEVLKRLIEERKRLGLSQQEMARLVHITQSNYSKVEKGLHRLSYEELKYLSKANVDIFYILT | 0.0845 |
| HMAVANEAIANINMKEVKQAIHNLPEIFKNPFLLYFDGYKYHEIAEMLDEPLGTIKSRIHFARKLLKSHI | 0.22 |
| HMAVDVNKATAAELDSIKGIGPAISAKILEEKKKGGNFKDWNDLVTRVSGVGEANAAKFSSEGLTVGGAS | 0.235 |
| HMAVELPLETTLDIVRKYARNQEVDRRAERVEAVSAEALQTLAPRGTKLASEIVEQAKTQVLEELA | -0.0679 |
| HMAVKYTKDDFLYTEKPYEAIYDYKNDPFMHNLKIEQMAQQAAEVGVKTFKGLYKNYVKMREMQRGANV | 0.0966 |
| HMAVNSALVQRNWLIGYRIAEEELQGDNRAEYGASIIKKLAKELTAEYGKGYTKTNLYHFYSFYKT | -0.494 |
| HMAVNVNGIHLSSQQHEALVSIWRTGRMPEPHAGQKPWLWIQALRRRGLVSGNALRLTDKGRHIVQLLQ | 0.226 |
